Assay results taken from the supplement of paper PMC9170038.

Experiments:
MS2 coat protein [1] = experiment: apparent KD of MS2 coat protein, switch OFF state (with FMN for OFF switches, without FMN for ON switches); designed switch direction (-1 OFF switch, 1 ON switch): 1; higher = weaker reporter binding; settings: FMN input: 0 or 200 uM; Eterna round: R93 (includes R88 designs)
Summary of the method: (§1)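 The buffer was 100 mM Tris-HCl pH 7.5 with 80 mM KCl and 4 mM MgCl2, used without or with constant ligand. In it, RNA switches transcribed on-chip from Illumina sequencing clusters were titrated with SNAP-549-labelled MS2 coat protein in twofold steps from 0.7 or 1.5 nM to 3 µM. Apparent KD for each design is the median of its normalised cluster binding-curve fits.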

MS2 coat protein [2] = experiment: apparent KD of MS2 coat protein, switch ON state; designed switch direction (-1 OFF switch, 1 ON switch): 1; higher = weaker reporter binding; settings: FMN input: 0 or 200 uM; Eterna round: R93 (includes R88 designs)
Summary of the method: as §1

Sequence | apparent KD of MS2 coat protein (MS2 coat protein [1]) [nM] | apparent KD of MS2 coat protein (MS2 coat protein [2]) [nM]
AAAAAACAAAGAGAGGAUAUCCAAAAAAAAACAUGAGGAUCACCCAUGUAAAGAAAUUUAAAAUGGGAGAAGGCUCUUUGAAAAA [Same State 2.6b ( Helter Skelter 1)] | 30.9 | 33.4
AGAAAACAUGAGGAUCACCCAUGUGACAAUAUGGGAGGAUAUACGAAGACGAAAGUCGAAGUAGAAGGCCUAAAGA [Garnet 50] | 66.7 | 23.4
AAAAAAAAAACUCAGGAUAUAGAUUGUAGAACAUGAGGAUCACCCAUGUAGUGAAAGAAGAGAGACUAGAAGGGAGUAAAAAAAAA [Same State 2 #3] | 69.1 | 43.2
AUAAGACAUGAGGAUCACCCAUGUAUAAGAGCAUGAGGAUAUAUAAAAAGAAAAAGGAGAAUAGAAGGCAUAGUUG [JR_SS001_Sub1221] | 107 | 84.1
AAAGAAGAAAGACAGGAUAUGGAUGGGUAAACAUGAGGAUCACCCAUGUAUAAGAAAGAAAGAAACCAGAAGGGUCAAAAGAAAA [Darius III] | 551 | 42.7
AAAAAACAUGAGGAUCACCCAUGUGCAAAAUUCGCAGGAUAUUCUUUUUUUAAAUGGGAGGGAGAAGGGUGUAAAA [Nob's Hobby 20 - Jieux - Same State 1] | 21.3 | 20.8
CUGGACAUAGUACAGGAUAUAUGAAUAGUCACAUGAGGAUCACCCAUGUCCAUUUAUAUGGGCACAUAGAAGGGUGGUAGUUAAG [Mat - Same state - Malcolm Mod - D139] | 41.2 | 4.52
AUAUGAGCUAUGGAGGAUAUCCAUAACAAGACAUGAGGAUCACCCAUGUAAUCAAAACAAUAAUGGGAGAAGGCCAUAGCUCAAU [SS 2 M47] | 50.9 | 76.3
AGGAGACAUGAGGAUCACCCAUGUGAGAAGAGGCGAGGAUAUCGAAAGAAAGAAGAGAAACGAGAAGGCGCGAGGA [salish99-SS1-019] | 58.5 | 29.8
AAAAGACAUGAGGAUCACCCAUGUCAAAACAUAGGAGGAUAUGUCUGGAAAAAAGACUGGACAGAAGGCCUUUGUC [SS1 - 59] | 18.9 | 15.5
AAAAAAAAAUCACAGGAUAUACAAAAAAAAACAUGAGGAUCACCCAUGUAAAAAAAAAAAAAAAAGUAGAAGGGUGAUCCAAAAAA | 9.28 | 12.1
AACAAUCUAUCUGAGGAUAUGUGUCGAAAGACAUGAGGAUCACCCAUGUGAAAACAUGGGAAAACACAGAAGGCAGAUAGAUUGA [SS2: 1152] | 33.2 | 54.9
AAAAAAAAACGUGAGGAUAUGUGAAAAUUAACAUGAGGAUCACCCAUGUGAUAAAAAAAAAAAAAACAGAAGGUACAAAAAAAAAA [Same 2 again I have no idea] | 28.4 | 21.2
AUAAAAUAAAAGGAGGAUAUCCUAAAUAAAACAUGAGGAUCACCCAUGUAAAAAAUAAUAAAAUGGGAGAAGGCCUAAAAUAAAU [SS2 M 25] | 35 | 16.9
GAAAAACAUGAGGAUCACCCAUGUCAAUAUAUGGGAGGAUAUACAAAGACGAAAGUCAAAGUAGAAGGCCUAAAAG | 66.4 | 18.3
GAAGACAUAGUUCAGGAUAUGGGAAUAGUCACAUGAGGAUCACCCAUGUGCAUUUAUAUGCGCGCUCAGAAGGGAGGUAGAUAUA [SameState2 Malc#19] | 33.5 | 21

Sequence | apparent KD of MS2 coat protein (MS2 coat protein [1]) [nM] | apparent KD of MS2 coat protein (MS2 coat protein [2]) [nM]
AGGAAACAUGAGGAUCACCCAUGUAAGAUAUACACAGGAUAUGCGAAAAGAAACAAAGAAGCAGAAGGGUGGAAAA [75%, Ex sub1, 11] | 31.6 | 16.5
AAAUAAAUGACUAAGGAUAUAUCGAAGAAAACAUGAGGAUCACCCAUGUGAUAAUAAAAAGGGUGGUAGAAGGUAGUCAACAAAC [Mod 4 of Pariah 4 by Hyphema in Round 1] | 88 | 50.2
UACAGACAUGAGGAUCACCCAUGUAGAAUUAUGGGAGGAUAUACAAAGACGAGAGUCAGAGUAGAAGGCCUAGGAG [salish99-ss1-165] | 56.9 | 25.2
ACAAUACAUGAGGAUCACCCAUGUUAGCUGGGCGAAGGAUAUGUAGAUGGAUAAAAAUAUGCAGAAGGUCGAUAAC [JR_SS001_Sub209] | 109 | 68.7
UCCUUACAUGAGGAUCACCCAUGUCGCAGGAAUCAAGGAUAUGGGACCGCAAGACGGAAACCAGAAGGUGAAAUAU [Gedizala] | 287 | 181
AGAAAACAUGAGGAUCACCCAUGUGAUAACAUGGGAGGAUAUACGAGGACGAUAGUCAAGGUAGAAGGCCUAAAGA [Garnet 71] | 32.1 | 97.3
AAGAAACAUGAGGAUCACCCAUGUAAUAAUAUGGGAGGAUAUACAAGGACGUAAGUCAAGGUAGAAGGCCUAAGAA [Mat - Same State 1 - Meechl mod - D141] | 137 | 21
AACAAUCUAUCUGAGGAUAUCAUGAAAAAAACAUGAGGAUCACCCAUGUGCAGGAAAACUGCAUAUGAGAAGGCAGAUAGAUUGA [SS2: 1101] | 913 | 21.6
GCAGGGCCACACUAGGAUAUGGGUGUCUAGACAUGAGGAUCACCCAUGUUAUGGCAAAACAAAGCUCAGAAGGAGUCGUGGCCCA [Tizasozaer] | 36 | 11.8
AUAAAACAUGAGGAUCACCCAUGUAGAAAUAUGGGAGGAUAUACAAAGACGAAAGUCGAGGUAGAAGGCCUAAAAG [Mat - Same State 1 - Meechl mod - D121] | 97.9 | 21.3
GAAGAACAUGAGGAUCACCCAUGUGUAGAAGCAUGAGGAUAUGUAAGUCAAAGAAAAACGAUAGAAGGCAUGGAGA [JR_SS001_Sub1714] | 119 | 141
AAUAUAUUAAGUGAGGAUAUCGAGAAAAAAACAUGAGGAUCACCCAUGUGGGAAACAUGGUAGGGUGAGAAGGUACUUAAUAUAU [Samwise Clockwise 22 - Jieux - Same State 2] | 399 | 270
AAGAAACAUGAGGAUCACCCAUGUAGAAAUAUGGGAGGAUAUACAAAGACGAAAGUCAAAGUAGAAGGCCUAAGAA [Mat - Same State 1 - Meechl mod - D129] | 63.2 | 16.6
AAUACACAUGGUCAGGAUAUCGCAGCUAGGACAUGAGGAUCACCCAUGUCGUACGUAACCGUAAAUGAGAAGGGACAGGGUGACC [JR_SS002_Sub408] | 54.1 | 145
GGGAAGAAGAGAGAGGAUAUCCAAAGGAAAACAUGAGGAUCACCCAUGUAAAAGGAAGGAAAUUGGGAGAAGGCUCAAAAGAGGA [salish99-ss2-025] | 51.6 | 21.6
UUUAAUUGCGGGCAGGAUAUGUAUUAAAAUACAUGAGGAUCACCCAUGUGCGGGUGUAACACCCGACAGAAGGGCCAAUCGCGAC [Bearisan] | 300 | 64.7
